Test results as given in paper PMC11851098 (Nucleic Acids Research, 2025).

Legend:
SAXS = target: the molecule itself; assay: SAXS
Suv3 helicase = target: T1, Suv3 helicase (UniProt Q8IYB8 23-786, Alexa 647 label (site not stated) in the MST assay); assay: MST
T1 sequence (looked up): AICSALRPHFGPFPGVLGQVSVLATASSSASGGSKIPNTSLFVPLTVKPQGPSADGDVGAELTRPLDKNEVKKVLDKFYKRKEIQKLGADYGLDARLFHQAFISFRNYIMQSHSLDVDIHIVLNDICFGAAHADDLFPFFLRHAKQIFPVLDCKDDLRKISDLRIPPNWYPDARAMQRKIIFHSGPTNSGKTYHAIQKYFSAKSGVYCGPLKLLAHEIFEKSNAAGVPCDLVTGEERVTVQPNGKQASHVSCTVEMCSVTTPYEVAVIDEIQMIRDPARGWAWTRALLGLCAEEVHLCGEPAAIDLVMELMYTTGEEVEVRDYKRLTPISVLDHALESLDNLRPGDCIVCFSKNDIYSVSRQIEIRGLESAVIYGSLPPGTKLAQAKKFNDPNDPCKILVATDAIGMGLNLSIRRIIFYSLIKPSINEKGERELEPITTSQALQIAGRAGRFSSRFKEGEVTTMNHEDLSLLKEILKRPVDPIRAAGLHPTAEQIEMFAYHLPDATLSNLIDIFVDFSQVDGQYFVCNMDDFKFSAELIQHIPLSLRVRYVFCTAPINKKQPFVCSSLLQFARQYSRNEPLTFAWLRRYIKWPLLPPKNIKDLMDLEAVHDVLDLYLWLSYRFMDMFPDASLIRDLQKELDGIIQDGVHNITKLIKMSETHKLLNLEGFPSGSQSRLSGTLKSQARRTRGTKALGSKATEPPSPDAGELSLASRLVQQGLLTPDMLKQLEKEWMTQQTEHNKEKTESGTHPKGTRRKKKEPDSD

Kd (Suv3 helicase): 386 ± 64 nM
B1: hPNPase P467S mutant, residues 46-783 (enzyme, human, UniProt Q8TCS8 46-783, looked up)
chain: AVAVDLGNRKLEISSGKLARFADGSAVVQSGDTAVMVTAVSKTKPSPSQFMPLVVDYRQKAAAAGRIPTNYLRREIGTSDKEILTSRIIDRSIRPLFPAGYFYDTQVLCNLLAVDGVNEPDVLAINGASVALSLSDIPWNGPVGAVRIGIIDGEYVVNPTRKEMSSSTLNLVVAGAPKSQIVMLEASAENILQQDFCHAIKVGVKYTQQIIQGIQQLVKETGVTKRTPQKLFTPSPEIVKYTHKLAMERLYAVFTDYEHDKVSRDEAVNKIRLDTEEQLKEKFPEADPYEIIESFNVVAKEVFRSIVLNEYKRCDGRDLTSLRNVSCEVDMFKTLHGSALFQRGQTQVLCTVTFDSLESGIKSDQVITAINGIKDKNFMLHYEFPPYATNEIGKVTGLNRRELGHGALAEKALYPVIPRDFSFTIRVTSEVLESNGSSSMASACGGSLALMDSGVPISSAVAGVAIGLVTKTDPEKGEIEDYRLLTDILGIEDYNGDMDFKIAGTNKGITALQADIKLPGIPIKIVMEAIQQASVAKKEILQIMNKTISKPRASRKENGPVVETVQVPLSKRAKFVGPGGYNLKKLQAETGVTISQVDEETFSVFAPTPSAMHEARDFITEICKDDQEQQLEFGAVYTATITEIRDTGVMVKLYPNMTAVLLHNTQLDQRKIKHPTALGLEVGQEIQVKYFGRDPADGRMRLSRKVLQSPATTVVRTLNDRSSIVMGEPISQSSSNSQ
stoichiometry N (SAXS): 3
